Results from patent publication US20260132190A1 (Eli Lilly, published 2026).

Key:
human IL-34 [1] = molecular target: T1, human IL-34 (human, UniProt Q6ZMJ4 21-242); test: cell-based or functional assay
T1 sequence: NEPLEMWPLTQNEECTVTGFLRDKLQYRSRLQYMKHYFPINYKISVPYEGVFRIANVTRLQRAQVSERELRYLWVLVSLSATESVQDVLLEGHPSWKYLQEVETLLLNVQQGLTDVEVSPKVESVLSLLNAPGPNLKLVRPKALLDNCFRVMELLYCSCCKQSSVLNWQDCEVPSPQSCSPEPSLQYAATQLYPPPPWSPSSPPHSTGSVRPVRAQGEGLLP

human IL-34 [2] = molecular target: T1, human IL-34; test: SPR BIAcore 8K, 37 C, antibody captured on Protein A chip, IL-34 in solution
Experimental: (§1) Binding affinity of anti-IL-34 monoclonal antibodies of the present disclosure to human and/or cynomolgus monkey (cyno) IL-34 may be determined by methods known in the art. Briefly, the binding affinity and kinetics of the antibody are evaluated by surface plasmon resonance using BIAcore™ 8K (Cytiva) at 37° C. […] For each cycle, 200 μL IL-34 is flowed over the immobilized antibody at 100 μL/minute, and then dissociated for 20 minutes. The chip surface is regenerated with 50 μL of glycine buffer at pH 1.5 at a flow rate of 100 μL/minute. The data are fit to a 1:1 Langmiur binding mode to derive kon, koff and to calculate KD.

cynomolgus monkey IL-34 [3] = molecular target: T2, cynomolgus monkey IL-34 (cynomolgus monkey, UniProt G7Q1L3 21-242); test: as above
T2 construct: It was biotinylated in the CSF1R displacement ELISA; also called cyno IL-34
T2 sequence: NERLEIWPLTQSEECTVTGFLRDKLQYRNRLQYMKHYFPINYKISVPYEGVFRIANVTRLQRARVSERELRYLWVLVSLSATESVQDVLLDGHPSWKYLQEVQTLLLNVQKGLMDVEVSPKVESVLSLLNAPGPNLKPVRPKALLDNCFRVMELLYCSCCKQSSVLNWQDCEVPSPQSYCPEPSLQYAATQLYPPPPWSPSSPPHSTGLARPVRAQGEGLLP
Experimental: as §1

human IL-34 [4] = molecular target: T1, human IL-34; test: competition ELISA, displacement of biotinylated human IL-34 from coated hCSF1R_Fc
Experimental: (§2) CSF1R extracellular domain proteins (hCSF1R_Fc commercially available from R&D Cat #329-MR, cynomolgus CSF1R ECD-Fc (AAA is a linker between CSF1R extracellular domain and Fc) (SEQ ID NO: 34)) can be bound to an ELISA plate at concentrations of 30 nM in order to capture soluble biotinylated IL-34 and allowed to bind for one hour. After washing and blocking plate, biotinylated IL-34 may be added, then detected via streptavidin conjugated peroxidase. Concentrations of labeled IL-34 near the 80% binding level (EC₈₀) (3.7 nM) may be used in conjunction with a range of antibody concentrations (0-100 nM) to determine concentration of antibody required to displace IL-34 from CSF1R. After 1 hr incubation, IL-34 bound to CSF1R is detected via streptavidin conjugated peroxidase. The antibodies are assayed (n=2) and the average and standard deviation at each concentration are calculated. The potency of an antibody to displace IL-34 from CSF1R is reported as IC₅₀ (nM) with the calculated confidence interval (CI) in Table 4 and Table 5.

cynomolgus monkey IL-34 [5] = molecular target: T2, cynomolgus monkey IL-34; test: competition ELISA, displacement of biotinylated cyno IL-34 from coated cyno CSF1R ECD-Fc
Experimental: as §2

B1: Antibody 1 (antibody, human IgG4 S228P, kappa, F234A L235A, V domains shown)
VH: EVQLLESGGGLVQPGGSLRLSCAASGFAFSSYRMSWVRQAPGKGLEWVSAISASGGKTYYADSVKGRFTISRDNSKNTLYLQMNSLRAEDTAVYYCAKRGYIWHAFDLWGRGTLVTVSS
VL: EIVLTQSPGTLSLSPGERATLSCRASQSVYSSYLAWYQQKPGQAPRLLIYGASSRATGIPDRFSGSGSGTDFTLTISRLEPEDFAVYYCQVVGSSPPFTFGGGTKVEIKR
notes: Human anti-IL-34 antibody with IgG4 PAA hinge/Fc and kappa light chain; also called Exemplified Antibody 1; exemplified antibody 1
IC50 (ug/ml), neutralization of human IL-34 induced luciferase reporter activity (human IL-34 [1]): 0.0531 µg/mL
Kd (human IL-34 [2]): 0.0312 nM
koff (human IL-34 [2]): 0.00026 s⁻¹
kon (human IL-34 [2]): 8.4e+06 M⁻¹ s⁻¹
Kd (cynomolgus monkey IL-34 [3]): 0.0409 nM
koff (cynomolgus monkey IL-34 [3]): 0.0003 s⁻¹
kon (cynomolgus monkey IL-34 [3]): 7.9e+06 M⁻¹ s⁻¹
IC50 (human IL-34 [4]): 0.0274 nM
IC50 (cynomolgus monkey IL-34 [5]): 0.975 nM
